Assay results taken from the Immune Epitope Database (IEDB).

Legend:
Experiment in all cases: IEDB peptide-MHC binding, purified MHC/competitive/radioactivity; filed as Kd, often an IC50 or EC50 that approximates it; ≥ and ≤ were set here for values at or beyond the usual limits of such assays
HLA-A*02:02 = molecular target: HLA-A*02:02
HLA-A*02:03 = molecular target: HLA-A*02:03
HLA-A*02:06 = molecular target: HLA-A*02:06
HLA-A*68:02 = molecular target: HLA-A*68:02
HLA-A*02:01 = molecular target: HLA-A*02:01
[1] = source organism: Lassa virus Josiah
[2] = source organism: Whitewater Arroyo virus strain AV9310135
[3] = source organism: Pichinde virus strain Munchique
[4] = source organism: Guanarito virus strain INH-95551

YLISIFLHL
Kd (HLA-A*02:02; [1]): 173 nM
Kd (HLA-A*02:03; [1]): 11 nM
Kd (HLA-A*02:06; [1]): 10 nM

YVSSIFLHL
Kd (HLA-A*02:02; [2]): ≤ 1 nM
Kd (HLA-A*02:03; [2]): 10 nM
Kd (HLA-A*68:02; [2]): ≤ 1 nM
Kd (HLA-A*02:06; [2]): 15 nM

YTITVFLHL
Kd (HLA-A*02:02; [3]): 128 nM
Kd (HLA-A*02:01; [3]): 10 nM
Kd (HLA-A*02:03; [3]): 14800 nM
Kd (HLA-A*68:02; [3]): 5 nM
Kd (HLA-A*02:06; [3]): 7 nM

GTTSLFLHL
Kd (HLA-A*02:02; [4]): 57 nM
Kd (HLA-A*02:01; [4]): 49 nM
Kd (HLA-A*02:03; [4]): 750 nM
Kd (HLA-A*68:02; [4]): 5 nM
Kd (HLA-A*02:06; [4]): 5 nM
